Reference: US5446130A, “Parathyroid hormone antagonists” (Mitsubishi Kasei Corporation, priority 1990, dated 1995)
Where two headings read alike, the source gives them in different places. Where no end group is shown, it is not given here. The star is where a group is joined. Myristoyl = CCCCCCCCCCCCCC(=O)*

T1: hPTH (1-34) (human, UniProt P01270)
T1 peptide: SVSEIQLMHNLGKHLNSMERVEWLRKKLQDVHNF

B1: Compound No. 10 (peptide)
peptide: XLMHDKGKSIQDLRRRFFLHHLIAEIHTA
modifications: N-terminal myristoyl (Myr-Gln); C-terminal amide (Ala-NH2)
B2: Compound No. 14 (peptide)
peptide: IQXMHDKGKSIQDLRRRFFLHHLIAEIHTA
modifications: Nle (norleucine) as third residue (EEE); C-terminal amide (Ala-NH2)
B3: [Ile^5, Met^8]-hPTHrP (5-34)-NH2 (peptide)
peptide: IQLMHDKGKSIQDLRRRFFLHHLIAEIHTA-NH2
B4: Compound No. 17 (peptide)
peptide: IQLMHAKGKSIQDLRRRFFLHHLIAEIHTA-NH2
B5: Compound No. 18 (peptide)
peptide: IQLMHALGKSIQDLRRRFFLHHLIAEIHTA-NH2
B6: Compound No. 19 (peptide)
peptide: IQLMHDKGKSIQDLRRRFFLRHLIAEIHTA-NH2
B7: Compound No. 20 (peptide)
peptide: IQLMHDKGKSIQDLRRRFFLHKLIAEIHTA-NH2
B8: Compound No. 21 (peptide)
peptide: Ac-IQLMHDKGKSIQDLRRRFFLHHLIAEIHTA-NH2
B9: Compound No. 22 (peptide)
peptide: Myristoyl-IQLMHDKGKSIQDLRRRFFLHHLIAEIHTA-NH2
SMILES: CCCCCCCCCCCCCC(=O)N[C@H](C(=O)N[C@@H](CCC(N)=O)C(=O)N[C@@H](CC(C)C)C(=O)N[C@@H](CCSC)C(=O)N[C@@H](Cc1c[nH]cn1)C(=O)N[C@@H](CC(=O)O)C(=O)N[C@@H](CCCCN)C(=O)NCC(=O)N[C@@H](CCCCN)C(=O)N[C@@H](CO)C(=O)N[C@H](C(=O)N[C@@H](CCC(N)=O)C(=O)N[C@@H](CC(=O)O)C(=O)N[C@@H](CC(C)C)C(=O)N[C@@H](CCCNC(=N)N)C(=O)N[C@@H](CCCNC(=N)N)C(=O)N[C@@H](CCCNC(=N)N)C(=O)N[C@@H](Cc1ccccc1)C(=O)N[C@@H](Cc1ccccc1)C(=O)N[C@@H](CC(C)C)C(=O)N[C@@H](Cc1c[nH]cn1)C(=O)N[C@@H](Cc1c[nH]cn1)C(=O)N[C@@H](CC(C)C)C(=O)N[C@H](C(=O)N[C@@H](C)C(=O)N[C@@H](CCC(=O)O)C(=O)N[C@H](C(=O)N[C@@H](Cc1c[nH]cn1)C(=O)N[C@H](C(=O)N[C@@H](C)C(N)=O)[C@@H](C)O)[C@@H](C)CC)[C@@H](C)CC)[C@@H](C)CC)[C@@H](C)CC
B10: Compound No. 1 (peptide)
peptide: SEIQLMHALGKSIQDLRRRFFLHHLIAEIHTA-NH2
B11: Compound No. 2 (peptide)
peptide: SEIQLMHQLGKSIQDLRRRFFLHHLIAEIHTA-NH2
B12: Compound No. 8 (peptide)
peptide: FQLMHDKGKSIQDLRRRFFLHHLIAEIHTA-NH2
B13: Compound No. 9 (peptide)
peptide: LQLMHDKGKSIQDLRRRFFLHHLIAEIHTA-NH2

Tests used:
[1] = target: T1, hPTH (1-34); conditions: scale: ratio of IC50 to that of [Tyr34]-hPTH(3-34)-NH2
[2] = target: T1, hPTH (1-34)
[3] = tested on: output of cAMP produced by 5×10^-9 M hPTH (1-34) in cultured mouse osteoblast MC3T3-E1; test: Determination of PTH antagonism: inhibition of cAMP output induced by hPTH (1-34) in cultured mouse osteoblast MC3T3-E1; format: cell-based; conditions: Table 4, 50% inhibition of cAMP output by 5×10^-9 M hPTH (1-34), ratio to control Compound No. 15 = 1
Description: PTH antagonism of the PTHrP derivatives (I) of the present invention was determined on the basis of the output of cAMP, using cultured mouse osteoblast MC3T3-E1.
To a multiwell-culture plate of 12-well were inoculated 1×10^5 cells/well of the cultured cells, and the plate was incubated at 37° C. under 95% air-5% CO2 atmosphere for 3 days after addition of α-modified MEM containing 10% semi-fetal bovine serum as a medium. Then, the medium was exchanged with α-modified MEM containing 1% bovine serum albumin and the cultured cells were incubated for 6 hours. The medium was replaced by α-modified MEM containing various concentrations of the compound of the present invention, 5×10^-9 M hPTH (1-34), 1% bovine serum albumin and 1 mM isobutylmethylxanthin, and the mixture was incubated for 1 hour. The medium was separated from the cells, and the medium was used as a sample for assaying cAMP. The cells were shaken with 90% n-propyl alcohol to extract cAMP according to Yamaguchi et al., J. Biol. Chem., 262, 7711-7718 (1987) for preparing another sample.
Assay of cAMP was performed using a commercially available cAMP-radioimmunoassay kit. […] Compound numbers in the tables correspond to those in Table 2.

[4] = target: T1, hPTH (1-34); test: cell-based or functional assay
[5] = target: T1, hPTH (1-34); test: cell-based or functional assay

Molecule | IC50 Ratio: 50% inhibition of cAMP output, MC3T3-E1 mouse osteoblasts [4] | other results
[Tyr^34]-hPTH (3-34)-NH2 (from UniProt P01270) (peptide) |  | IC50 Ratio: 50% inhibition of cAMP output, MC3T3-E1 mouse osteoblasts [1]: 1
[Leu^11,D-Trp^12]-hPTHrP(7-34)-NH2 (from UniProt P12272) (peptide) |  | IC50 Ratio: 50% inhibition of cAMP output, MC3T3-E1 mouse osteoblasts (ratio of IC50 to that of Compound No. 15) [2]: 3.91
CCCC[C@H](NC(=O)[C@H](CCC(N)=O)NC(=O)[C@@H](N)[C@@H](C)CC)C(=O)N[C@@H](CCSC)C(=O)N[C@@H](Cc1c[nH]cn1)C(=O)N[C@@H](CC(=O)O)C(=O)N[C@@H](CCCCN)C(=O)NCC(=O)N[C@@H](CCCCN)C(=O)N[C@@H](CO)C(=O)N[C@H](C(=O)N[C@@H](CCC(N)=O)C(=O)N[C@@H](CC(=O)O)C(=O)N[C@@H](CC(C)C)C(=O)N[C@@H](CCCNC(=N)N)C(=O)N[C@@H](CCCNC(=N)N)C(=O)N[C@@H](CCCNC(=N)N)C(=O)N[C@@H](Cc1ccccc1)C(=O)N[C@@H](Cc1ccccc1)C(=O)N[C@@H](CC(C)C)C(=O)N[C@@H](Cc1c[nH]cn1)C(=O)N[C@@H](Cc1c[nH]cn1)C(=O)N[C@@H](CC(C)C)C(=O)N[C@H](C(=O)N[C@@H](C)C(=O)N[C@@H](CCC(=O)O)C(=O)N[C@H](C(=O)N[C@@H](Cc1c[nH]cn1)C(=O)N[C@H](C(=O)N[C@@H](C)C(N)=O)[C@@H](C)O)[C@@H](C)CC)[C@@H](C)CC)[C@@H](C)CC [Compound No. 14] |  | IC50 Ratio [3]: 0.922
CCCCCCCCCCCCCC(=O)N[C@H](C(=O)N[C@@H](CCC(N)=O)C(=O)N[C@@H](CC(C)C)C(=O)N[C@@H](CCSC)C(=O)N[C@@H](Cc1c[nH]cn1)C(=O)N[C@@H](CC(=O)O)C(=O)N[C@@H](CCCCN)C(=O)NCC(=O)N[C@@H](CCCCN)C(=O)N[C@@H](CO)C(=O)N[C@H](C(=O)N[C@@H](CCC(N)=O)C(=O)N[C@@H](CC(=O)O)C(=O)N[C@@H](CC(C)C)C(=O)N[C@@H](CCCNC(=N)N)C(=O)N[C@@H](CCCNC(=N)N)C(=O)N[C@@H](CCCNC(=N)N)C(=O)N[C@@H](Cc1ccccc1)C(=O)N[C@@H](Cc1ccccc1)C(=O)N[C@@H](CC(C)C)C(=O)N[C@@H](Cc1c[nH]cn1)C(=O)N[C@@H](Cc1c[nH]cn1)C(=O)N[C@@H](CC(C)C)C(=O)N[C@H](C(=O)N[C@@H](C)C(=O)N[C@@H](CCC(=O)O)C(=O)N[C@H](C(=O)N[C@@H](Cc1c[nH]cn1)C(=O)N[C@H](C(=O)N[C@@H](C)C(N)=O)[C@@H](C)O)[C@@H](C)CC)[C@@H](C)CC)[C@@H](C)CC)[C@@H](C)CC [Compound No. 22] |  | IC50 Ratio [3]: 0.765
B1 | 2.24 ratio of IC50 to that of Compound No. 15 | 
B2 | 0.922 ratio of IC50 to that of Compound No. 15 | 
B3 | 1 ratio of IC50 to that of Compound No. 15 | IC50 Ratio: 50% inhibition of cAMP output, MC3T3-E1 mouse osteoblasts [5]: 0.017 ratio of IC50 to that of [Tyr34]-hPTH(3-34)-NH2
B4 | 1.17 ratio of IC50 to that of Compound No. 15 | 
B5 | 1.97 ratio of IC50 to that of Compound No. 15 | 
B6 | 0.934 ratio of IC50 to that of Compound No. 15 | 
B7 | 1.01 ratio of IC50 to that of Compound No. 15 | 
B8 | 0.934 ratio of IC50 to that of Compound No. 15 | 
B9 | 0.765 ratio of IC50 to that of Compound No. 15 | 
B10 |  | IC50 Ratio: 50% inhibition of cAMP output, MC3T3-E1 mouse osteoblasts [5]: 0.003 ratio of IC50 to that of [Tyr34]-hPTH(3-34)-NH2
B11 |  | IC50 Ratio: 50% inhibition of cAMP output, MC3T3-E1 mouse osteoblasts [5]: 0.003 ratio of IC50 to that of [Tyr34]-hPTH(3-34)-NH2
B12 |  | IC50 Ratio: 50% inhibition of cAMP output, MC3T3-E1 mouse osteoblasts [5]: 0.026 ratio of IC50 to that of [Tyr34]-hPTH(3-34)-NH2
B13 | 1.02 ratio of IC50 to that of Compound No. 15 | 
